Experimental data as given in article PMC7077502.

Target: His6-eIF4A1 (UniProt P60843 1-406)
Test: fluorescence polarization

His6-eIF4A1, sequence (P60843 whole entry): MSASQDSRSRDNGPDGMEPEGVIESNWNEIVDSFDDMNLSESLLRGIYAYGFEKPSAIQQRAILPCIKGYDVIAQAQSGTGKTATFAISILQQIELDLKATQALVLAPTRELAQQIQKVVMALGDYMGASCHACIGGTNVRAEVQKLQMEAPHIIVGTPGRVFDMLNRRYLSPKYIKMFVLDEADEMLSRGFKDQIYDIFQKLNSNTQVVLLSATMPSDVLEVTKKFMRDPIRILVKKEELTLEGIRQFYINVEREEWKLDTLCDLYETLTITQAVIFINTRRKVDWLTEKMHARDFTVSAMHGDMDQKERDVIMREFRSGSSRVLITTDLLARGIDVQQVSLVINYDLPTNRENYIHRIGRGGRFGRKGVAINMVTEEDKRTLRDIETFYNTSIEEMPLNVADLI

Binder: AGAGAGAGAGAGAGAG (ssRNA) [r(AG)8]
- binding result: binds
